Measurements from PMC6128619, “Allosteric Activation Shifts the Rate-Limiting Step in a Short-Form ATP Phosphoribosyltransferase” (Biochemistry, 2018).
Like-named read-outs stand apart in the source and are kept apart here. One block for each molecule: values may come before it.

Assays:
[1] = target: T1, PaHisGS (short-form ATP phosphoribosyltransferase catalytic subunit) (Psychrobacter arcticus, UniProt Q4FQF7); test: steady-state kinetics, initial velocity patterns, […] NMR of turnover (no ITC or DSF signal without PRPP); format: biochemical
T1 construct: gene hisG
T1 sequence (Q4FQF7 1-231): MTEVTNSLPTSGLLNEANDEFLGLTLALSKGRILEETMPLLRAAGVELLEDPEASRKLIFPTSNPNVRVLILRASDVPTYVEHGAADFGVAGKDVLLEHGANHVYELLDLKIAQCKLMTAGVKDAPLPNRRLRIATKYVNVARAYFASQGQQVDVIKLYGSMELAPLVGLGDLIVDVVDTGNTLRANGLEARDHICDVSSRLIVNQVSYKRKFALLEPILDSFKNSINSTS

[2] = target: T1, PaHisGS (short-form ATP phosphoribosyltransferase catalytic subunit); test: ITC (single-site model, […]); DSF Tm shift +[…] °C; format: binding
[3] = target: T1, PaHisGS (short-form ATP phosphoribosyltransferase catalytic subunit); test: steady-state inhibition kinetics, absorbance at […] nm (IC50 […]; Ki […] vs PRPP, […] vs ATP); format: biochemical
[4] = target: T1, PaHisGS (short-form ATP phosphoribosyltransferase catalytic subunit); test: […] NMR of product formation and steady-state kinetics (alternative substrate, with PRPP); format: biochemical
[5] = substrate: Nc1ncnc2c1ncn2[C@@H]1O[C@H](COP(=O)(O)OP(=O)(O)OP(=O)(O)O)[C@@H](O)[C@H]1O; test: purified protein, by the assay type; design: steady-state substrate saturation kinetics with Mg2+, Michaelis-Menten fit
Excerpt: (§1) Replacement of Mg^2+ by Mn^2+ is a common strategy in enzymology,[36] having been employed to uncover rate-limiting steps in reactions involving stabilization of phosphate groups.[37] HisGL ATPPRTs have been reported to have their activities either unaltered or decreased by changing the divalent metal in the reaction from the physiological Mg^2+ to Mn^2+, but no mechanistic inference has been drawn.[17],[38] […] Mn^2+ led to 2.6- and 11-fold increases in PaHisGSkcat and kcat/KM^ATP, respectively, as compared with Mg^2+. The change in kcat/KM^ATP was driven in large part by a reduction in KM^ATP. LC-MS analysis of the PaHisGS reaction with Mn^2+ confirmed the same product, PRATP, was being formed (Figure S5).  Figure 5 Steady-state kinetics with Mg^2+ (green) and Mn^2+ (blue). Saturation curves varying either PRPP or ATP concentration with saturating concentration of the cosubstrate for (A and B) PaHisGS and (C and D) PaATPPRT. Data points are mean ± SE, and lines are data fitting to eq 3. Kinetic and DSF data were analyzed by the nonlinear regression function of SigmaPlot 13 (SPSS Inc.). Data points and error bars in graphs are represented as mean ± standard error, and kinetic and equilibrium constants are presented as mean ± fitting error. Initial rate data with varying concentrations of PaHisZ were fitted to eq 1. The concentration of PaATPPRT at any concentration of PaHisGS and PaHisZ was calculated according to eq 2. Substrate saturation data were fitted to eq 3. Inhibition data at fixed substrate concentrations were fitted to eq 4, and competitive inhibition data were fitted to eq 5. Initial velocity patterns were fitted to eq 6, and pre-steady-state kinetics under multiple-turnover conditions was fitted to eq 7. In eqs 1–7, v is the initial rate, Vmax is the maximal velocity, G is the concentration of PaHisGS, Z is the concentration of PaHisZ, KD is the equilibrium dissociation constant, PaATPPRT is the concentration of PaHisGS-PaHisZ complex, S is the concentration of the varying substrate, kcat is the steady-state turnover number, KM is the apparent Michaelis constant, ET is total enzyme concentration, vi is the initial rate in the presence of inhibitor, IC50 is the half-maximal inhibitory concentration, Ki is the inhibitor dissociation constant, A and B are the first and second substrates to bind to the enzyme, respectively, Ka and Kb are their respective Michaelis constants, Kia is the apparent dissociation constant for the complex between enzyme and substrate A when the concentration of B approaches zero, t is time, P(t) is product concentration at time t, A0 is the amplitude of the burst phase, and kburst is the first-order rate constant of product formation in the burst phase. DSF thermal denaturation data were fitted to eq 8,[32] where FU is fraction unfolded, T is the temperature in °C, Tm is the melting temperature, c is the slope of the transition region, and LL and UL are folded and unfolded baselines, respectively. [drawing 1] 1 [drawing 2] 2 [drawing 3] 3 [drawing 4] 4 [drawing 5] 5 [drawing 6] 6 [drawing 7] 7 [drawing 8] 8

[6] = substrate: O=P(O)(O)OC[C@H]1O[C@H](OP(=O)(O)OP(=O)(O)O)[C@H](O)[C@@H]1O; test: purified protein, by the assay type; design: steady-state substrate saturation kinetics with Mg2+, Michaelis-Menten fit
Excerpt: as §1

[7] = substrate: Nc1ncnc2c1ncn2[C@@H]1O[C@H](COP(=O)(O)OP(=O)(O)OP(=O)(O)O)[C@@H](O)[C@H]1O; test: purified protein, by the assay type; design: steady-state kinetics, spectrophotometric PRATP formation, substrate saturation fitted for KM
Procedure: as §1, with “For a quantitative comparison of the reactions with ATP and ADP, steady-state kinetic analysis of the reaction with either substrate was carried out (Figure 4) and kinetic parameters are summarized in Table S3. […] Replacement” for “Replacement”, “S5).” for “S5).  Figure 5 Steady-state kinetics with Mg^2+ (green) and Mn^2+ (blue). Saturation curves varying either PRPP or ATP concentration with saturating concentration of the cosubstrate for (A and B) PaHisGS and (C and D) PaATPPRT. Data points are mean ± SE, and lines are data fitting to eq 3.”

[8] = substrate: O=P(O)(O)OC[C@H]1O[C@H](OP(=O)(O)OP(=O)(O)O)[C@H](O)[C@@H]1O; test: purified protein, by the assay type; design: steady-state kinetics, spectrophotometric PRATP formation, substrate saturation fitted for KM
Procedure: as §1, with “For a quantitative comparison of the reactions with ATP and ADP, steady-state kinetic analysis of the reaction with either substrate was carried out (Figure 4) and kinetic parameters are summarized in Table S3. […] Replacement” for “Replacement”, “S5).” for “S5).  Figure 5 Steady-state kinetics with Mg^2+ (green) and Mn^2+ (blue). Saturation curves varying either PRPP or ATP concentration with saturating concentration of the cosubstrate for (A and B) PaHisGS and (C and D) PaATPPRT. Data points are mean ± SE, and lines are data fitting to eq 3.”

Molecule: Nc1ncnc2c1ncn2[C@@H]1O[C@H](COP(=O)(O)OP(=O)(O)OP(=O)(O)O)[C@@H](O)[C@H]1O [ATP]
steady-state kinetics, initial velocity patterns, 31P NMR of turnover (no ITC or) [1]: once saturated PaHisGS turns over ATP and ADP just as effectively

Kd [2]: 12 ± 2 µM
Molecule: O=P(O)(O)OC[C@H]1O[C@H](OP(=O)(O)OP(=O)(O)O)[C@H](O)[C@@H]1O [PRPP]

Ki [3]: 25 ± 5 µM
Molecule: Nc1ncnc2c1ncn2[C@@H]1O[C@H](COP(=O)(O)O)[C@@H](O)[C@H]1O [AMP]

Molecule: Nc1ncnc2c1ncn2[C@@H]1O[C@H](COP(=O)(O)OP(=O)(O)O)[C@@H](O)[C@H]1O [ADP]
31P NMR of product formation and steady-state kinetics (alternative substrate, w) [4]: establishing that ADP can replace ATP as a substrate for PaHisGS

B1: PaATPPRT (Psychrobacter arcticus 273-4) (protein)
chain: T1 sequence (Q4FQF7 1-231)
notes: hetero-octamer of four HisGS and four HisZ
Km [5]: 0.72 ± 0.09 mM | kcat [5]: 2.7 ± 0.1 s⁻¹ | kcat/Km [5]: 3800 ± 500 M⁻¹ s⁻¹ | Km [6]: 0.43 ± 0.06 mM | kcat [6]: 2.7 ± 0.1 s⁻¹ | kcat/Km [6]: 6000 ± 900 M⁻¹ s⁻¹ | Km [7]: 0.19 ± 0.03 mM | kcat [7]: 2.1 ± 0.1 s⁻¹ | kcat/Km [7]: 11100 ± 2000 M⁻¹ s⁻¹ | Km [8]: 0.28 ± 0.06 mM | kcat [8]: 2.1 ± 0.1 s⁻¹ | kcat/Km [8]: 7500 ± 2000 M⁻¹ s⁻¹

B2: PaHisGS (short-form ATP phosphoribosyltransferase catalytic subunit) (Psychrobacter arcticus 273-4) (protein)
chain: T1 sequence (Q4FQF7 1-231)
Km [7]: 0.30 ± 0.05 mM | kcat [7]: 0.39 ± 0.05 s⁻¹ | kcat/Km [7]: 1300 M⁻¹ s⁻¹ | Km [8]: 0.6 ± 0.2 mM | kcat [8]: 0.39 ± 0.05 s⁻¹ | kcat/Km [8]: 700 ± 200 M⁻¹ s⁻¹
